Measured values taken from the supplement of paper PMC5949888.

System: Saccharomyces cerevisiae PS128 hsf1 delta, HSF1(1-493) fusion
Experiment: growth estimate (transactivation domain function in HSF1 fusion, heat-shock survival) (a.u. (slope of normalised read count over time)); higher = stronger growth at 37°C, i.e. more transactivation activity
Conditions: library: design library
In short: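 Transactivation-domain oligos were designed and fused to a truncated yeast HSF1 (amino acids 1–493), then expressed in a yeast strain lacking hsf1. Replica plating onto –trp 5-FOA plates was followed by incubation at 30°C or 37°C for 0, 2, 4, 6 and 8 days. Inserts were amplified by PCR and sequenced on an Illumina MiSeq as six barcoded replicates from a single experiment. The growth estimate is the slope of a robust linear fit over time of read counts normalised to sample totals and to starting count.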

| Sequence | growth estimate |
| --- | --- |
| EFPDLLDLDFILSN | 0.17 |
| EFRDLLDLDFILSN | 0.421 |
| EGDDEFSLWDSML | 0.054 |
| EGNDLLDLDFILSN | 0.62 |
| EKDDEFSLWDSML | -0.193 |
| EKLYSILWSDVY | -0.183 |
| EPDDEFSLWDSML | 0.531 |
| EPLYSILWSDVY | -0.136 |
| EPNDLLDLDFILSN | 0.229 |
| ERDDEFSLWDSML | 0.267 |
| ERLYSILWSDVY | < -0.25 |
| ERNDLLDLDFILSN | -0.237 |
| GADDIWEELLSEDL | 1.28 |
| GDDDEFSLWDSML | 1.64 |
| GDLYSILWSDVY | -0.212 |
| GEFPGIELQELQELQALLQQ | -0.114 |
| GELSWIIELLEKDG | -0.152 |
| GFDLDMLGDFDLDMLG | 1.03 |
| GFDYDFLFGNDFA | 8.74 |
| GFNDLLDLDFILSN | -0.0099 |
| GFPDTQDDFLKWWRSEEAQ | -0.128 |
| GLDESWDYIFETTE | 1.28 |
| GLSSHGFSVDTSALLDLFSP | 0.18 |

| Sequence | growth estimate |
| --- | --- |
| GMDDVYNYLFDD | 0.253 |
| GQNGEIAQLWDFN | < -0.25 |
| KADDIWEELLSEDL | 0.514 |
| KDDDEFSLWDSML | 0.429 |
| KDLYSILWSDVY | -0.212 |
| KEFPGIELQELQELQALLQQ | < -0.25 |
| KELSWIIELLEKDG | -0.245 |
| KFDLDMLGDFDLDMLG | 0.164 |
| KFDYDFLFGNDFA | 1.06 |
| KFNDLLDLDFILSN | 0.326 |
| KFPDTQDDFLKWWRSEEAQ | -0.0955 |
| KLDESWDYIFETTE | -0.0907 |
| KLSSHGFSVDTSALLDLFSP | -0.241 |
| KMDDVYNYLFDD | -0.148 |
| KQNGEIAQLWDFN | < -0.25 |
| LADYDFLFGNDFA | 2.67 |
| LFAYDFLFGNDFA | 0.948 |
| LFDADFLFGNDFA | 0.761 |
| LFDGDFLFGNDFA | 1.7 |
| LFDKDFLFGNDFA | -0.177 |
| LFDYAFLFGNDFA | 2.15 |
| LFDYDALFGNDFA | 0.627 |
| LFDYDFGFGNDFA | 1.76 |

| Sequence | growth estimate |
| --- | --- |
| LFDYDFKFGNDFA | -0.229 |
| LFDYDFLAGNDFA | 0.0054 |
| LFDYDFLFANDFA | 2.92 |
| LFDYDFLFGADFA | 1.91 |
| LFDYDFLFGGDFA | 5.98 |
| LFDYDFLFGKDFA | 2.49 |
| LFDYDFLFGNAFA | 0.211 |
| LFDYDFLFGNDAA | 2.84 |
| LFDYDFLFGNDFA | 6.94 |
| LFDYDFLFGNDFG | 0.038 |
| LFDYDFLFGNDFK | 2.23 |
| LFDYDFLFGNDFP | 15.5 |
| LFDYDFLFGNDFR | 3.17 |
| LFDYDFLFGNDGA | 0.693 |
| LFDYDFLFGNDKA | 0.271 |
| LFDYDFLFGNDPA | 0.915 |
| LFDYDFLFGNDRA | 0.389 |
| LFDYDFLFGNGFA | 1.45 |
| LFDYDFLFGNKFA | -0.246 |
| LFDYDFLFGNPFA | -0.0703 |
| LFDYDFLFGNRFA | -0.205 |
| LFDYDFLFGPDFA | 10.1 |
| LFDYDFLFGRDFA | 3.41 |

| Sequence | growth estimate |
| --- | --- |
| LFDYDFLFKNDFA | 2.06 |
| LFDYDFLFPNDFA | 4.58 |
| LFDYDFLKGNDFA | -0.139 |
| LFDYDFLPGNDFA | -0.232 |
| LFDYDFLRGNDFA | -0.143 |
| LFDYDFPFGNDFA | 0.577 |
| LFDYDFRFGNDFA | -0.0564 |
| LFDYDGLFGNDFA | 0.114 |
| LFDYDKLFGNDFA | -0.159 |
| LFDYDPLFGNDFA | 0.326 |
| LFDYDRLFGNDFA | -0.0061 |
| LFDYGFLFGNDFA | 1.29 |
| LFDYKFLFGNDFA | 0.0164 |
| LFDYPFLFGNDFA | 1.53 |
| LFDYRFLFGNDFA | -0.216 |
| LFGYDFLFGNDFA | 1.68 |
| LFPYDFLFGNDFA | 1.32 |
| LFRYDFLFGNDFA | -0.0535 |
| LGDYDFLFGNDFA | 2.6 |
| LKDYDFLFGNDFA | -0.0701 |
| LPDYDFLFGNDFA | 2.12 |
| LRDYDFLFGNDFA | -0.135 |
| MASSHGFSVDTSALLDLFSP | 0.0397 |

| Sequence | growth estimate |
| --- | --- |
| MGSSHGFSVDTSALLDLFSP | 0.215 |
| MKSSHGFSVDTSALLDLFSP | -0.215 |
| MLASHGFSVDTSALLDLFSP | -0.0319 |
| MLGSHGFSVDTSALLDLFSP | 0.0043 |
| MLKSHGFSVDTSALLDLFSP | -0.17 |
| MLPSHGFSVDTSALLDLFSP | -0.0639 |
| MLSAHGFSVDTSALLDLFSP | -0.231 |
| MLSGHGFSVDTSALLDLFSP | -0.0767 |
| MLSKHGFSVDTSALLDLFSP | -0.229 |
| MLSPHGFSVDTSALLDLFSP | 0.158 |
| MLSSAGFSVDTSALLDLFSP | -0.0464 |
| MLSSHAFSVDTSALLDLFSP | -0.157 |
| MLSSHGASVDTSALLDLFSP | -0.0827 |
| MLSSHGFAVDTSALLDLFSP | -0.142 |
| MLSSHGFGVDTSALLDLFSP | -0.0322 |
| MLSSHGFKVDTSALLDLFSP | < -0.25 |
| MLSSHGFPVDTSALLDLFSP | -0.119 |
| MLSSHGFRVDTSALLDLFSP | -0.241 |
| MLSSHGFSADTSALLDLFSP | -0.026 |
| MLSSHGFSGDTSALLDLFSP | -0.115 |
| MLSSHGFSKDTSALLDLFSP | -0.239 |
| MLSSHGFSPDTSALLDLFSP | 0.374 |
| MLSSHGFSRDTSALLDLFSP | < -0.25 |

| Sequence | growth estimate |
| --- | --- |
| MLSSHGFSVATSALLDLFSP | -0.234 |
| MLSSHGFSVDASALLDLFSP | 0.0915 |
| MLSSHGFSVDGSALLDLFSP | -0.0946 |
| MLSSHGFSVDKSALLDLFSP | -0.249 |
| MLSSHGFSVDPSALLDLFSP | -0.0885 |
| MLSSHGFSVDRSALLDLFSP | -0.204 |
| MLSSHGFSVDTGALLDLFSP | -0.207 |
| MLSSHGFSVDTKALLDLFSP | -0.145 |
| MLSSHGFSVDTPALLDLFSP | -0.228 |
| MLSSHGFSVDTSAALDLFSP | -0.124 |
| MLSSHGFSVDTSAGLDLFSP | -0.207 |
| MLSSHGFSVDTSAKLDLFSP | -0.237 |
| MLSSHGFSVDTSALADLFSP | -0.191 |
| MLSSHGFSVDTSALGDLFSP | -0.213 |
| MLSSHGFSVDTSALKDLFSP | < -0.25 |
| MLSSHGFSVDTSALLALFSP | -0.21 |
| MLSSHGFSVDTSALLDGFSP | -0.227 |
| MLSSHGFSVDTSALLDKFSP | -0.227 |
| MLSSHGFSVDTSALLDLASP | -0.145 |
| MLSSHGFSVDTSALLDLFAP | -0.0921 |
| MLSSHGFSVDTSALLDLFGP | -0.17 |
| MLSSHGFSVDTSALLDLFKP | -0.179 |
| MLSSHGFSVDTSALLDLFPP | -0.106 |

| Sequence | growth estimate |
| --- | --- |
| MLSSHGFSVDTSALLDLFRP | -0.22 |
| MLSSHGFSVDTSALLDLFSA | -0.127 |
| MLSSHGFSVDTSALLDLFSG | -0.181 |
| MLSSHGFSVDTSALLDLFSK | -0.245 |
| MLSSHGFSVDTSALLDLFSP | 0.0347 |
| MLSSHGFSVDTSALLDLGSP | -0.228 |
| MLSSHGFSVDTSALLDLKSP | -0.096 |
| MLSSHGFSVDTSALLDLPSP | < -0.25 |
| MLSSHGFSVDTSALLDLRSP | < -0.25 |
| MLSSHGFSVDTSALLDPFSP | < -0.25 |
| MLSSHGFSVDTSALLDRFSP | -0.229 |
| MLSSHGFSVDTSALLGLFSP | -0.207 |
| MLSSHGFSVDTSALLKLFSP | -0.216 |
| MLSSHGFSVDTSALLPLFSP | -0.158 |
| MLSSHGFSVDTSALLRLFSP | -0.193 |
| MLSSHGFSVDTSALPDLFSP | -0.23 |
| MLSSHGFSVDTSALRDLFSP | -0.196 |
| MLSSHGFSVDTSAPLDLFSP | -0.15 |
| MLSSHGFSVDTSGLLDLFSP | 0.0909 |
| MLSSHGFSVDTSKLLDLFSP | -0.143 |
| MLSSHGFSVDTSPLLDLFSP | -0.191 |
| MLSSHGFSVDTSRLLDLFSP | -0.171 |
| MLSSHGFSVGTSALLDLFSP | -0.248 |

| Sequence | growth estimate |
| --- | --- |
| MLSSHGFSVKTSALLDLFSP | -0.0119 |
| MLSSHGFSVPTSALLDLFSP | -0.204 |
| MLSSHGGSVDTSALLDLFSP | -0.112 |
| MLSSHGPSVDTSALLDLFSP | -0.216 |
| MLSSHGRSVDTSALLDLFSP | -0.248 |
| MLSSHPFSVDTSALLDLFSP | -0.195 |
| MLSSHRFSVDTSALLDLFSP | -0.227 |
| MLSSKGFSVDTSALLDLFSP | -0.115 |
| MLSSPGFSVDTSALLDLFSP | 0.169 |
| MPSSHGFSVDTSALLDLFSP | 0.171 |
| MRSSHGFSVDTSALLDLFSP | -0.241 |
| PADDIWEELLSEDL | 2.99 |
| PAFPGIELQELQELQALLQQ | -0.0264 |
| PAPDTQDDFLKWWRSEEAQ | 0.0134 |
| PDDDEFSLWDSML | 1.67 |
| PDLYSILWSDVY | -0.202 |
| PEAPGIELQELQELQALLQQ | < -0.25 |
| PEFAGIELQELQELQALLQQ | -0.244 |
| PEFGGIELQELQELQALLQQ | < -0.25 |
| PEFKGIELQELQELQALLQQ | < -0.25 |
| PEFPAIELQELQELQALLQQ | -0.181 |
